Test results as given in IntAct's records for PubMed 21903585.

B1: RAD51-associated protein 1 (Homo sapiens), Q96B01-2 (parent)
chain: MVRPVRHKKPVNYSQFDHSDSDDDFVSATVPLNKKSRTAPKELKQDKPKPNLNNLRKEEIPVQEKTPKKRMALDDKLYQRDLEVALALSVKELPTVTTNVQNSQDKSIEKHGSSKIETMNKSPHISNCSVASDYLDLDKITVEDDVGGVQGKRKAASKAAAQQRKILLEGSDGDSANDTEPDFAPGEDSEDDSDFCESEDNDEDFSMRKSKVKEIKKKEVKVKSPVEKKEKKSKSKCNALVTSVDSAPAAVKSESQSLPKKVSLSSDTTRKPLEIRSPSAESKKPKWVPPAASGGSRSSSSPLVVVSVKSPNQSLRLGLSRLARVKPLHPNATST
partner: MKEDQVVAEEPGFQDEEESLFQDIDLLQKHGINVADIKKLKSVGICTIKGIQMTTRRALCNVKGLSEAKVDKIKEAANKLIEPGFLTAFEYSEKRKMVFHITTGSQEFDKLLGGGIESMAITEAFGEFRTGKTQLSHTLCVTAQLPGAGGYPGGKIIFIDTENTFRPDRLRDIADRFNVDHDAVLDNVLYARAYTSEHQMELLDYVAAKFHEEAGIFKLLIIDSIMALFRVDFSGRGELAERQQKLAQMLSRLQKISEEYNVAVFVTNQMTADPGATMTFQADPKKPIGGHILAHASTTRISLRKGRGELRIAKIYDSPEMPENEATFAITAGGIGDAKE

Variants of: B1
Conditions: with dmc1_human DMC1, Q14565

effect of a mutation on the interaction	Variant
disrupting interaction	MVRPVRHKKPVNYSQFDHSDSDDDFVSATVPLNKKSRTAPKELKQDKPKPNLNNLRKEEIPVQEKTPKKRMALDDKLYQRDLEVALALSVKELPTVTTNVQNSQDKSIEKHGSSKIETMNKSPHISNCSVASDYLDLDKITVEDDVGGVQGKRKAASKAAAQQRKILLEGSDGDSANDTEPDFAPGEDSEDDSDFCESEDNDEDFSMRKSKVKEIKKKEVKVKSPVEKKEKKSKSKCNALVTSVDSAPAAVKSESQSLPKKVSLSSDTTRKPLEIRSPSAESKKPKAVPPAASGGSRSSSSPLVVVSVKSPNQSLRLGLSRLARVKPLHPNATST [W287A]
